9 molecules from patent publication US20220125947A1 (published 2022) can be followed below.

First the molecules themselves.
B1: VG9B46 (antibody, human IgG1, kappa, V domains shown)
VH: EVQLVESGGGLVKPGGSLRLSCEASGFTFSINSMNWVRQAPGKGLEWVSSISSTSDYIFNADSVKGRFTISRDNAKNSLYLQMNSLRAEDTAVYYCVRDDVFGAFDIWGQGTMVTVSS
VL: EIVLTQSPGTLSLSPGERATLSCRTSQSVSRSYLGWYQQKPGQPPRLLIFGSSSRATGIPDRFSGSGSGTDFTLTISRLEPEDFAVYYCQQYSRSPLTFGGGTKVDIKR
notes: IgG1, kappa
B2: VG9B198 (antibody, human IgG1, lambda, V domains shown)
VH: QVQLQESGPGLVKPSETLSLTCTVSGDSISSIYWSWIRQSAGKGLEWIGRIYTTDITNYNPSLKSRVTMSADTSKNQLSLKLTSVTAADTAVYYCAKNGYSYGGFNYWGQGTLVTVSS
VL: QSVLTQPPSVSGAPGQRVTISCTGSSSNIGAGYDVHWYQRLPGTAPKLLIYGDSYRPSGVPDRFSGSKSGTSASLAITGLQAEDEADYYCQSYDSSLSVVVFGGGTKLTVLG
notes: IgG1, lambda
B3: VG9B121 (antibody, human IgG1, kappa, V domains shown)
VH: EVQLVESGGGLVKPGGSLRLSCVASGFTFSDYAMDWVRQAPGKGLDWISSISSTSNYIFYADSVKGRFTISRDNAKNSLYLQMNSLRVEDSAVYYCANSYNWNYGGAFDIWGQGTMVTVSS
VL: DIQMTQSPGTLSSSPGERATLSCRASQSVSSSYFAWYQQKPGRAPRLLIYGASSRATGIPDRFSGSGSGTDFTLTISRLEPEDFAVYFCQQYGRSPLTFGGGTKVEIKR
notes: IgG1, kappa
B4: VG9B140 (antibody, human IgG1, kappa, V domains shown)
VH: EVQLVESGGGLVKPGGSLRLSCAGSGFTFRSYDMNWVRQAPGKGLEWVSSISTSSGYIYYADSVKGRFTISRDNAKNSLSLQMNSLRAEDTAVFYCARDRGIAVAGDYYYGMDVWGQGTMVTVSS
VL: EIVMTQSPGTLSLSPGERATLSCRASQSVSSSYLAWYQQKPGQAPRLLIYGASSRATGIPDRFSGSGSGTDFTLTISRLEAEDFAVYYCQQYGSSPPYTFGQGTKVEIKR
notes: IgG1, kappa
B5: VG9B69 (antibody, human IgG1, kappa, V domains shown)
VH: EVQLVESGGGLVKPGGSLRLSCAASGFTFSSYDINWVRQAPGKGLEWVSSITSSSYYIYYADSVKGRFTISRDNAKNSLYLQMNSLRAEDTAVYYCARDLGVRGVDYYYYGLDVWGQGTMVTVSS
VL: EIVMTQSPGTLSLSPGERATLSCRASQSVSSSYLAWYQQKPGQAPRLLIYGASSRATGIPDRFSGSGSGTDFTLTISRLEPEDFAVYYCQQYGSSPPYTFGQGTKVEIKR
notes: IgG1, kappa
B6: VG9B195 (antibody, human IgG1, lambda, V domains shown)
VH: EVQLVESGGGLVKPGGSLRLSCAASGFTFSPYTMNWVRQAPGKGLEWVSSISSSSSYMYYADSVKGRFTISRDNAKNSLYLQMNSLRAEDTAVYYCARDGDLVGPTYYFDYWGQGTLVTVSS
VL: SYELMQPPSVSVSPGQTASITCSGDKLGDKYACWYQQKPGQSPVLVIYQHNKRPSGIPERFSGSNSGKTATLTISGTQAMDEADYYCQAWDSTTVVFGGGTKLTVLG
notes: IgG1, lambda
B7: VG9B416 (antibody, human IgG1, kappa)
heavy: not shown
light: EIVLTQSPGTLSLSPGDRATLSCRASQSVASSYLAWYQQKPGQSPRLLIYGASSRATGIPDRFSGSGSGTDFTLTISRLEPEDFAVYYCQQYGSSPPYTFGQGTKLEIKRTVAAPSVFIFPPSDEQLKSGTASVVCLLNNFYPREAKVQWKVDNALQSGNSQESVTEQDSKDSTYSLSSTLTLSKADYEKHKVYACEVTHQGLSSPVTKSFNRGEC
notes: IgG1, kappa
B8: VG9B463 (antibody, human IgG1, lambda, V domains shown)
VH: EVQLVESGGGLVKPGGSLRLSCSASGFTFSNYDMNWVRQAPGKGLEWVSSISSSSSYIYYADSVKGRFTISRDNAKNSLYLQMNSLRAEDTAVYHCARDVGVTTDYYYYGMDVWGQGTTVTVSS
VL: QPVLTQSSSASGTPGQRVTISCSGSSSNIGSNTVNWYQQFPGTAPKLLIYTNTQRPSGVPDRFSGSKSGTLVSLAISGLQSEDEADYYCAAWDDSLNAWVFGGGTKLTVLG
notes: IgG1, lambda
B9: VG9B104 (antibody, human IgG1, kappa, V domains shown)
VH: EVQLVESGGGLVKPGGSLRLSCAASGFTFSVYSMNWVRQAPGKGLEWVSSIGSSSSYIFYADSVKGRFTISRDNAKNSLYLQMNSLRAEDTAVYYCGRDHDYGGLDYWGQGTLVTVSS
VL: EIVLTQSPGTLSLSPGERATLSCRASQSVSSSYLAWYQQKPGQAPRLLIYGPSNRATDIPDRFSGTGSGTDFTLTISRLEPEDFAVYYCQQYGRSPLTFGGGTKVEIKR
notes: IgG1, kappa

The target in the assay is γδ T cell receptor on human γδ T cells (AG000003021) (human). Briefly: flow cytometry, DRC binding at 37°C on human γδ T cells. The protocol: Binding of antibodies to human γδ T cells or SKW cell lines expressing Vγ9/Vδ2, Vγ9/Vδ2 or Vγ5/Vδ2 was carried out by flow cytometry. Briefly, the cells were centrifuged at 300×g for 5 minutes and the pellet was resuspended in 34 ml fresh media (in RPMI+10% FBS). 50 μL of the cells were then plated (44K cells/well) into assay plates. Samples were incubated for one hour at 37° C. in tissue culture (TC) incubator followed by wash steps by adding 100 μl FACS staining buffer. Secondary detention antibodies (A647 conjugated anti-human IgG Fc specific antibody (2 μg/mL) along with AF488 anti mouse CD3, clone OKT3 at 1 ug/mL) were added at 50 μL/well to appropriate wells according to the plate map. After incubating for 60 minutes at 37° C. in the TC incubator, cells were again washed as described above. This is followed by resuspension in 20 μL/well running buffer containing 1:1000 dilution of Sytox blue dead cell stain and the plates were run on iQue Screener.
Gating and data analysis: Human anti-human Vγ9 antibody (VG9B2 mAb at 10 nM) was used to mark the gating of positive population. All cells were first gated for singlets on SCS-A vs. SCS-H dot plot, live/dead followed by CD3 positive population, and this subset of CD3 positive population was gated for Vγ9 positive binding using positive control mAb. Cells were also assessed for cell binding of control mAbs by RL1 (A647) Geomeans from the live cell population. Advanced metrics were used and normalization metrics were chosen to calculate fold over background wells containing secondary antibody alone (designated as ‘background’ within ForeCyt settings).
A general note: A flow cytometer gives signals particle by particle.
As to B1, the “Max. Activity” value was determined as 3210 fold over background.

Regarding B2, the “Max. Activity” value was 3040 fold over background.

For B3, the “Max. Activity” value was 3670 fold over background.

B4: the “Max. Activity” value is 3230 fold over background.

B5: the “Max. Activity” value turned out to be 3110 fold over background.

As for B6, the “Max. Activity” value was 3260 fold over background.

B7: the “Max. Activity” value turned out to be 3120 fold over background.

Regarding B8, the “Max. Activity” value was 3030 fold over background.

B9: the “Max. Activity” value came out at 3050 fold over background.
